Assays:
[1] = biological target: receptor for App on Chang conjunctiva epithelial cells (proteinaceous, not identified) (human); test: cell-based or functional assay
[2] = biological target: receptor for App on Chang conjunctiva epithelial cells (proteinaceous, not identified) (human); test: FACS binding assay on Chang cells (FIG. 35)
[3] = biological target: human receptor for NadA on Chang conjunctiva epithelial cells (pronase-sensitive protein, not identified) (human); test: FACS on Chang cells, MFI against protein concentration
[4] = biological target: the molecule itself; test: Western blot of whole cell lysates with anti-NadA serum (self-association)

“App S267A expressed on the surface of E. coli (pET-AppS267A transformants)” gave a fluorescence shift (cells positive to adhesion), FACS adhesion of E. coli to Chang cells [1] of 91%.

“App expressed from the full-length gene on the surface of E. coli (pET-App transformants)” showed a fluorescence shift (cells positive to adhesion), FACS adhesion of E. coli to Chang cells [1] of 90.3%.

In the case of App-His, the concentration at which binding reaches a plateau [2] is reported as 50 µg/mL.

With “Appβ expressed on the surface of E. coli (pET-Appβ transformants)” the fluorescence shift, FACS adhesion of E. coli to Chang cells [1] was 74.2%.

“NadA (purified recombinant protein used in FACS binding to Chang cells)” gave a concentration at which binding reaches a plateau [3] of 200 µg/mL.

B1: NadA allele 1 (strain MC58) (other)
chain: ATSDDDVKKAATVAIVAAYNNGQEINGFKAGETIYDIGEDGTITQKDATAADVEADDFKGLGLKKVVTNLTKTVNENKQNVDAKVKAAESEIEKLTTKLADTDAALADTDAALDETTNALNKLGENITTFAEETKTNIVKIDEKLEAVADTVDKHAEAFNDIADSLDETNTKADEAVKTANEAKQTAEETKQNVDAKVKAAETAAGKAEAAAGTANTAADKAEAVAAKVTDIKADIATNKADIAKNSARIDSLDKNVANLRKETRQGLAEQAALSGLFQPYNVGRFNVTAAVGGYKSESAVAIGTGFRFTENFAAKAGVAVGTSSGSSAAYHVGVNYEW
notes: Oligomer of about 170 kDa; also called allele 1 of 961
B1: binds [4].

B2: NadA allele 2 (strain 90/18311) (other)
chain: ATNDDDVKKAATVAIAAAYNNGQEINGFKAGETIYDIDEDGTITKKDATAADVEADDFKGLGLKKVVTNLTKTVNENKQNVDAKVKAAESEIEKLTTKLADTDAALDATTNALNKLGENITTFAEETKTNIVKIDEKLEAVADTVDKHAEAFNDIADSLDETNTKADEAVKTANEAKQTAEETKQNVDAKVKAAETAAGKAEAAAGTANTAADKAEAVAAKVTDIKADIATNKDNIAKKANSADVYTREESDSKFVRIDGLNATTEKLDTRLASAEKSITEHGTRLNGLDRTVSDLRKETRQGLAEQAALSGLFQPYNVGRFNVTAAVGGYKSESAVAIGTGFRFTENFAAKAGVAVGTSSGSSAAYHVGVNYEW
notes: also called allele 2 of 961
B2: binds [4].

From patent US20140294884A1 (Novartis, published 2014)
